T1: RSV F protein of subtype A comprising a polypeptide of SEQ ID NO: 1 and a polypeptide of SEQ ID NO: 2 (RSV subtype A, UniProt P11209 137-513; P03420 26-109)
T1 construct: Stabilized prefusion F trimer made of three F2-F1 heterodimers; Produced recombinantly in CHO cells; also called RSV A; RSVA
T1 chain 1: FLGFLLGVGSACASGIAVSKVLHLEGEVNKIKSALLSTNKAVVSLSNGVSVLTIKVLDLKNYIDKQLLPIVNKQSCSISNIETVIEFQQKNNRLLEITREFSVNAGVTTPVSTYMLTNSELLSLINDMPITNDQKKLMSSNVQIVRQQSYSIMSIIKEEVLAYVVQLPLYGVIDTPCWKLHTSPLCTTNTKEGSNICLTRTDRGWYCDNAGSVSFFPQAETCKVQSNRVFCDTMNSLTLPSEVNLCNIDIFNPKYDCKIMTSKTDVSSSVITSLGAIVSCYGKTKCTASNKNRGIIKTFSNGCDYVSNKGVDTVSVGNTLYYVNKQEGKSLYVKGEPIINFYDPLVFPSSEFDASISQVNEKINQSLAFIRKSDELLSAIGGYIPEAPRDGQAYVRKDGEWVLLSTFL
T1 chain 2: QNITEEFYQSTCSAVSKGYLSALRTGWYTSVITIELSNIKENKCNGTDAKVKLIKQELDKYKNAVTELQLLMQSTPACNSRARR

T2: RSV F protein comprising a polypeptide of SEQ ID NO: 3 and a polypeptide of SEQ ID NO: 4 (RSV subtype B, UniProt O36634 137-513; O36634 26-109)
T2 construct: also called RSV B; RSVB
T2 chain 1: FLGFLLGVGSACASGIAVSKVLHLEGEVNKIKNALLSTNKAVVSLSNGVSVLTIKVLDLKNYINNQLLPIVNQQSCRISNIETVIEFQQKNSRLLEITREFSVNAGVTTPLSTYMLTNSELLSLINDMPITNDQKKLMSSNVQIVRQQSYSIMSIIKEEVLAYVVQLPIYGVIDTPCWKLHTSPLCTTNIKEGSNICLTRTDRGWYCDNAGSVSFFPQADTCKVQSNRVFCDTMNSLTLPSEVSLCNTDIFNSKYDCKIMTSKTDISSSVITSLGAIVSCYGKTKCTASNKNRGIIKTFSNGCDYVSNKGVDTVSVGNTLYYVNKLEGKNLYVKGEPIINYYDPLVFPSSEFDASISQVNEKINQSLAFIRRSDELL
T2 chain 2: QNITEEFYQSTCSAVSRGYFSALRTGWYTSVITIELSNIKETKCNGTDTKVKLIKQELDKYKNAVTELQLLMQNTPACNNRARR

B1: AM14 (trimeric prefusion specific antibody of the AM14 ELISA) (antibody, V domains shown)
VH: EVQLVESGGGVVQPGRSLRLSCAASGFSFSHYAMHWVRQAPGKGLEWVAVISYDGENTYYADSVKGRFSISRDNSKNTVSLQMNSLRPEDTALYYCARDRIVDDYYYYGMDVWGQGATVTVSS
VL: DIQMTQSPSSLSASVGDRVTITCQASQDIKKYLNWYHQKPGKVPELLMHDASNLETGVPSRFSGRGSGTDFTLTISSLQPEDIGTYYCQQYDNLPPLTFGGGTKVEIKR
notes: Antibody as used in the AM14 ELISA, detected with an HRP-labeled secondary antibody

Experiments:
[1] = target: RSV A + RSV B bivalent composition (RSV subtype A; RSV subtype B); experiment: AM14 Fab titration by SEC; High-Slow 2 cycle; 8 M 25°C
[2] = target: RSV A + RSV B bivalent composition (RSV subtype A; RSV subtype B); experiment: AM14 Fab titration by SEC; composition of Table 14; Annealing Temp Aggressive cycle
[3] = target: RSV A + RSV B bivalent composition (RSV subtype A; RSV subtype B); experiment: AM14 Fab titration by SEC; High-Slow 1 cycle; 3 M 40°C
[4] = target: RSV A + RSV B bivalent composition (RSV subtype A; RSV subtype B); experiment: AM14 Fab titration by SEC; Target cycle; 3 M 2-8°C (second value)
[5] = target: RSV A + RSV B bivalent composition (RSV subtype A; RSV subtype B); experiment: AM14 Fab titration by SEC; composition of Table 17; Pre-lyo Prep 2, T0 (second value)
[6] = target: RSV A + RSV B bivalent composition (RSV subtype A; RSV subtype B); experiment: AM14 Fab titration by SEC; Low-Fast cycle; 3 M 2-8°C (second value)
[7] = target: RSV A + RSV B bivalent composition (RSV subtype A; RSV subtype B); experiment: AM14 Fab titration by SEC; Target cycle; 3 M 25°C
[8] = target: T1, RSV F protein of subtype A comprising a …; experiment: AM14 ELISA; F10 (pH 7, 50 mM NaCl, 4.5% sucrose); 1 wk 25°C
[9] = target: T1, RSV F protein of subtype A comprising a …; experiment: AM14 ELISA; F11 (pH 7, 50 mM NaCl, 9.0% sucrose); 1 wk 5°C
[10] = target: T1, RSV F protein of subtype A comprising a …; experiment: AM14 ELISA; F19 (pH 7, 50 mM NaCl, 3% trehalose + 3% mannitol); 2 wk 25°C
[11] = target: T2, RSV F protein comprising a polypeptide …; experiment: AM14 prefusion assay relative to standard; RSV B 480 µg/mL, 2% sucrose + 4% mannitol; post-lyo T0
[12] = target: T1, RSV F protein of subtype A comprising a …; experiment: AM14 ELISA; F5 (pH 6, 100 mM NaCl, 9.0% sucrose); 2 wk 5°C
[13] = target: T1, RSV F protein of subtype A comprising a …; experiment: AM14 ELISA; F1 (pH 8, 100 mM NaCl, 0% sucrose); 1 wk 5°C
[14] = target: T1, RSV F protein of subtype A comprising a …; experiment: AM14 ELISA; F7 (pH 6, 100 mM NaCl, 0% sucrose); T0
[15] = target: T1, RSV F protein of subtype A comprising a …; experiment: AM14 ELISA; F19 (pH 7, 50 mM NaCl, 3% trehalose + 3% mannitol); 1 wk 5°C

| Molecule | Prefusion Content (%) [1] [%] | Prefusion Content (%) [2] [%] | Prefusion Content (%) [3] [%] | Prefusion Content (%) [4] [%] | Prefusion Content (%) [5] [%] | Prefusion Content (%) [6] [%] | Prefusion Content (%) [7] [%] | AM14 prefusion content (%), relative to standard [8] [%] | AM14 prefusion content (%), relative to standard [9] [%] | AM14 prefusion content (%), relative to standard [10] [%] | AM14 prefusion content (%), relative to standard [11] [%] | AM14 prefusion content (%), relative to standard [12] [%] | AM14 prefusion content (%), relative to standard [13] [%] | AM14 prefusion content (%), relative to standard [14] [%] | AM14 prefusion content (%), relative to standard [15] [%] |
| --- | --- | --- | --- | --- | --- | --- | --- | --- | --- | --- | --- | --- | --- | --- | --- |
| AM14 Fab | 71 | 70 | 52 | 70 | 82 | 59 | 71 | – | – | – | – | – | – | – | – |
| B1 | – | – | – | – | – | – | – | 82 | 101 | 84 | 82 | 76 | 96 | 88 | 74 |

From patent publication US20260097113A1 (Pfizer, published 2026)
